Assay results reported in patent publication US6548643.

How the values were obtained:
Assay in all cases: cell-based or functional assay
[1] = target: T1, H-2D^d class I molecule on P815 cells (mouse) (UniProt P01900)
T1 sequence (MHC heavy, looked up): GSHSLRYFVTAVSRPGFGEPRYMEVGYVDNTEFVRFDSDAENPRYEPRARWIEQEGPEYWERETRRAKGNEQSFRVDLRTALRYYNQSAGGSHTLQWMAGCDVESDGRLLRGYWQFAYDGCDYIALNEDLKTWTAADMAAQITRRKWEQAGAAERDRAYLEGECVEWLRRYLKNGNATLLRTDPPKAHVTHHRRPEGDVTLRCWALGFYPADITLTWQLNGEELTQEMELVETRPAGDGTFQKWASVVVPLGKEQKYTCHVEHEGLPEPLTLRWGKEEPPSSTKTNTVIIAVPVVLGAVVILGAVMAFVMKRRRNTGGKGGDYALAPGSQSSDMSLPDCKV

[2] = target: H-2K^b class I molecule on RMA cells (mouse) (UniProt P01901)
[3] = target: H-2L^d class I molecule on P815 cells (mouse) (UniProt P01897)
[4] = target: H-2K^d class I molecule on P815 cells (mouse) (UniProt P01902)
[5] = target: H-2D^b class I molecule on RMA cells (mouse) (UniProt P01899)
Chain of UniProt P01899 (P01899 25-362): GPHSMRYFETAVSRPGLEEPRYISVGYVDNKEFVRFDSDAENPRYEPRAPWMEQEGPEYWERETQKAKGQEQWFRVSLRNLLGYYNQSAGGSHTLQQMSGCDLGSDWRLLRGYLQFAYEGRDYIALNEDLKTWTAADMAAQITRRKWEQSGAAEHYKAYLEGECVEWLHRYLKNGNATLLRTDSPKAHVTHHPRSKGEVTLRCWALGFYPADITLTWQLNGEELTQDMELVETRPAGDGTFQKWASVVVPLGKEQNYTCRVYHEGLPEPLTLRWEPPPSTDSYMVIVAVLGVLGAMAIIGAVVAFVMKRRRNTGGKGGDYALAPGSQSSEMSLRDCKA

Chain of UniProt P01897 (P01897 25-362): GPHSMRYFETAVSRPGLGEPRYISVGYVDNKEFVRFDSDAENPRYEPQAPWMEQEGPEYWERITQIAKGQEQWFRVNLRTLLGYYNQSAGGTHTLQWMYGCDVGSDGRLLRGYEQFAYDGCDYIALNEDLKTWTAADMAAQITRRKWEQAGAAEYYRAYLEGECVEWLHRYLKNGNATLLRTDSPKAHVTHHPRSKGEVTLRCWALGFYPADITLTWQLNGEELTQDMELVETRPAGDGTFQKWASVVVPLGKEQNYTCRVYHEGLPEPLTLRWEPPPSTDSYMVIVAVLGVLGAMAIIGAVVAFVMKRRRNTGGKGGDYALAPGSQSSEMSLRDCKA
Chain of UniProt P01902 (P01902 22-368): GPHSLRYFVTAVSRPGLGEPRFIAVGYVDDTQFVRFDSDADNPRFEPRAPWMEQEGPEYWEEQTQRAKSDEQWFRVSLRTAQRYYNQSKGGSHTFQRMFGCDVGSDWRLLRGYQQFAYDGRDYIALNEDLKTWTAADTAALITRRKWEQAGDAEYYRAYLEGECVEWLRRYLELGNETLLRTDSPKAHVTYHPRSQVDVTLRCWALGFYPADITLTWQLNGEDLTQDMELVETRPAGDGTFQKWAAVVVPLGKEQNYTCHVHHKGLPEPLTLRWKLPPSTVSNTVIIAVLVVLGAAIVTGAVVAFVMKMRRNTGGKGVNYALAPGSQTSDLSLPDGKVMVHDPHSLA
Chain of UniProt P01901 (P01901 22-369): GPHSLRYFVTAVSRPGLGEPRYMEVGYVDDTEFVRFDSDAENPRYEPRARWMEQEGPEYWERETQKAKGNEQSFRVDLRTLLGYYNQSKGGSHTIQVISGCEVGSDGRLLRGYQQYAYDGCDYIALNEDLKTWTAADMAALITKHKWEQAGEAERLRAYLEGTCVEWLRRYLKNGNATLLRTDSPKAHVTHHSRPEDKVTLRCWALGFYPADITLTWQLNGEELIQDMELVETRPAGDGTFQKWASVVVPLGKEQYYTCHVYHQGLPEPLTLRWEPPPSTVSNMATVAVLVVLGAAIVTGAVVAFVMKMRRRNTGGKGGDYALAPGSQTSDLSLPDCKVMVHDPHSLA

SAPDTRPAP
% lysis of peptide-pulsed P815 target cells by mannan-HMFG CTL, E:T 50:1 [1]: 62% | % lysis of peptide-pulsed RMA target cells by mannan-HMFG CTL [2]: 80%

APDTRPAPG
% lysis of peptide-pulsed P815 target cells by mannan-HMFG CTL, E:T 50:1 [3]: 50%

VPSSTEKNA
% lysis of peptide-pulsed P815 target cells by mannan-HMFG CTL, E:T 50:1 [3]: 78%

NYGQLDIFP
% lysis of peptide-pulsed P815 target cells by CTL of mannan-HMFG immunised BALB/c mice (51Cr release) [4]: 0%

SVPSSTEKN
% lysis of peptide-pulsed P815 target cells by mannan-HMFG CTL, E:T 50:1 [1]: 0%

YGQLDIFPA
% lysis of peptide-pulsed P815 target cells by CTL of mannan-HMFG immunised BALB/c mice (51Cr release) [1]: 0%

APGSTAPPA
% lysis of peptide-pulsed RMA target cells by mannan-HMFG CTL [5]: 70%

AVSMTSSVL
% lysis of peptide-pulsed RMA target cells by mannan-HMFG CTL, E:T 50:1 [5]: 18% | % lysis of peptide-pulsed RMA target cells by mannan-HMFG CTL, E:T 100:1 [5]: 40% | % lysis of peptide-pulsed RMA target cells by mannan-HMFG CTL, E:T 50:1 [2]: 18% | % lysis of peptide-pulsed RMA target cells by mannan-HMFG CTL, E:T 100:1 [2]: 40% | % lysis of peptide-pulsed P815 target cells by mannan-HMFG CTL, E:T 50:1 [4]: 77%

CRRKNYGQL
% lysis of peptide-pulsed RMA target cells by mannan-HMFG CTL, E:T 50:1 [5]: 20% | % lysis of peptide-pulsed RMA target cells by mannan-HMFG CTL, E:T 100:1 [5]: 42% | % lysis of peptide-pulsed RMA target cells by mannan-HMFG CTL, E:T 50:1 [2]: 20% | % lysis of peptide-pulsed RMA target cells by mannan-HMFG CTL, E:T 100:1 [2]: 42%

SAPDNRPAL
% lysis of peptide-pulsed RMA target cells by mannan-HMFG CTL, E:T 50:1 [5]: 50%

YYQELQRDI
% lysis of peptide-pulsed P815 target cells by mannan-HMFG CTL, E:T 50:1 [4]: 50%

KNYGQLDIF
% lysis of peptide-pulsed P815 target cells by CTL of mannan-HMFG immunised BALB/c mice (51Cr release) [3]: 0%
